# From the RNAGym collection of RNA variant scans (doi:10.1073/pnas.2313332121)
# B1: TPR t1 (parent)
# chain: GACCAAUCUGCCCUCAGAGCUCGAGAACAUCUUCGGAUGCAGAGGAGGCAGGCUUCGGUGGCGCGAUAGCGCCAACGUCCUCAACCUCCAAUGCAUCCCACCACAUGAUGAUGCCUGAAGAGCCUUGGUUUUUUG
# Variants of: B1
# Experiment: polymerase ribozyme fitness, log enrichment relative to wild type (log ratio); higher = more active; in vitro selection for triplet polymerase activity
# Outline: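 Mutant libraries for each subunit of a heterodimeric triplet polymerase ribozyme were made by PCR and then transcribed. Each library underwent one round of in vitro selection in triplicate: annealing with a biotinylated primer, the partner subunit and triplets, frozen incubation at −7 °C, gel excision of extended constructs, streptavidin-bead capture and RT-PCR. Input and output libraries were Illumina-sequenced, and only genotypes with ≥10 input reads and ≥1 read per output were kept. Fitness is the logarithm, base 2, of genotype enrichment over wild-type enrichment, computed from inverse-variance-weighted replicate averages.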
row,Variant,polymerase ribozyme fitness (log ratio)
1,G51A C53A U133A,-2.17
2,A50U G117U,-2.6
3,G52A G61A U132A,-0.488
4,A50U G93A,-1.21
5,A50U U81A A100C,-1.2
6,G52A C53A A74G A90G,0.00151
7,C53A C56G G71C G127C,-1.96
8,G51U U55A C73U U78G C98U A105U,-7.15
9,G51U G113U,-6.05
10,G52A G60U C104G,-7.51
11,G51C C72A,-3.1
12,G52C C72A C104U C115G U116C U126G,-6.41
13,G52C C64U A84U C104A U112A,-1.62
14,G52A U55C C56A G57C,0.195
15,G51U G117U,-5.83
16,G52U U133G,-1.42
17,G52U A83C C101G C115U,-4.77
18,G51C C64U,-3.9
19,C53A C56G C70U U132A,-0.0503
20,G52A C124U,0.924
21,G51U G61A,-3.03
22,G52A U106G A111C,-2.25
23,G52A C72G G128C U130G,-1.87
24,G52U G69U A91C C104A,-2.27

row,Variant,polymerase ribozyme fitness (log ratio)
1,A50U G61U C86U,-1.34
2,G52A U59A,0.487
3,G51A U106A,-2.35
4,G52U G57C C97G C114A A119U,-6.02
5,G51C U59A C82U C98U,-5.66
6,G52U A74G A84G A121U,0.168
7,G51U G52A,-4.95
8,G52U C53G U54C U78C C97U,-1.14
9,G51A U87A C101A,-4.9
10,C53A C70U,0.0165
11,G51U C70U,-3.37
12,G51U C70G,-5.67
13,C53A C62A G77C,-0.326
14,A50U C101A,-2.09
15,G51U U112A A118U,-3.5
16,G52A G63U C114A,-3.58
17,G51A U81C C97U C115G,-5.02
18,G52U C56U,-2.1
19,G51U C64G A83C G113U C123G G127A,-6.21
20,G52A C101U,0.00367
21,G52C G69A C114U,-5.1
22,C53A A103U,-4.67
23,G52A G71C,-3.42
24,G51A G65C C114G,-6.09

row,Variant,polymerase ribozyme fitness (log ratio)
1,G52U G61A C94U,-0.267
2,G52U C73A,-0.528
3,A50U G63C U78A U112C U116G A119C,-6.63
4,G52U U59C,-0.547
5,A50U G117C G120C,-5.84
6,G51C A91U G113C C124A,-5.11
7,G51A G113C G122U G135U,-7.38
8,G52C A119G C124U,1.65
9,G52A C73U C82U,-0.555
10,C53A A74U A95C G120A,-0.291
11,G51A C56A G93A C114U G117U,-6.47
12,C53A A83G A105C,-3.47
13,G51U A68U U106G G110U C124A,-5.92
14,G51U U125A,-3.77
15,G52A U78C C86A C124G G128A,-1.71
16,G52U C114U U125A,-4.04
17,G51A C101U G117A,-4.58
18,A50U G52A A84U G128U,-5.16
19,G51C G93U,-5.19
20,G52U C64G C94U U106A A119G,-6.74
21,G51A C64A,-6.96
22,C53A A66G C123U,0.367
23,G52A G135U,-1.86
24,G52A G69U U78A C89U G128U,-2.93

row,Variant,polymerase ribozyme fitness (log ratio)
1,A50U U59C,-0.6
2,G52U C86G C89G G113C C114U A118G,-4.62
3,G52A G63C,-0.879
4,G51A G57C C114A,-3.38
5,G51A C86U U87A G113C,-6.8
6,G52U C88G A118U,-0.0981
7,G52A G69A A90C U116G G117C A118G,-6.12
8,G51A C88U,-2.93
9,G52U G58C G77A U87C U96G,-1.61
10,G52U U59A G113C A119G,-1.67
11,G52U U54A G63A C115A,-0.839
12,G51U C82G A83U U87A,-1.52
13,G51C A100U,-5.07
14,G51U G61C U87C C123A,-4.21
15,G52A G93A,-0.652
16,G52U C70U,-1.49
17,A50U G60A G93A,-1.39
18,C53A C56G C62U C89A G120C U134G,-0.681
19,G51A U54G C73G C98U,-5.39
20,G51U U116C,-4.25
21,G52U G61C G122A U125G,-1.37
22,C53A C72U C86G C115U,-1.64
23,G51U G71C,-5.37
24,G52A A90C A100U A111G,-2.82

row,Variant,polymerase ribozyme fitness (log ratio)
1,G51C C62U,-3.45
2,G51U U59A,-2.98
3,C53A A90U G117C,-4.59
4,A50U G51A G60A,-4.34
5,G51A U96A,-4.59
6,A50U G69A,-3.65
7,C53A A66U C72U C123U,0.234
8,G52U G60A A105C U106G A118G,-3.93
9,A50U G58A U78C A103G U109G,-5.98
10,G51U G71C U109G G117U C124G,-7.73
11,G51C G57A,-3.2
12,G52U C53G G60C C80A C94U,-2.08
13,A50U G61C C88U G113C,-5.11
14,G51A C56G C124U,-1.06
15,G51U G57A C76A G110U G122U,-5.8
16,G51U U55G,-3.24
17,G51U U67A A75U C88A U106A U112C,-6.98
18,A50U U112A U125C,-0.475
19,A50U G69U U81C C114A,-2.1
20,A50U G63U C104A,-5.48
21,G52U C62A,-2.89
22,G52A C82U A90C G117C,-3.56
23,G52A C114A,-2.73
24,G52A C114U,-2.52

row,Variant,polymerase ribozyme fitness (log ratio)
1,G51A A66U C104G A105U A121G,-7.62
2,G51U C104U,-3.67
3,G52U G57U G61U A111U,-6.65
4,G52U G60U C73U U96G A121G,-0.386
5,G52U G69C,-1.54
6,G52U G61C C124G U131G,-1.09
7,G51A C85U,-3.77
8,G52U C53A,-1.2
9,G52C C72A,-1.99
10,G51A C62U,-2.43
11,A50U G63C U112A A118G,-2.37
12,G52U C53U C62U C85U U129A,-3.42
13,G52U C80G,-4.76
14,G51U G71U C79G,-2.26
15,A50U U116A,-4.25
16,G51U C62U C89U,-5
17,G52A U109A,-5.76
18,G51A U112G,-3.74
19,G51A U112C,-2.05
20,G51C C79A G117A U133G,-5.7
21,G52A C79A G110C,-5.08
22,A50U G52C G77U U130C,-3.17
23,G52U G61C U131A,-1.22
24,G51U G77C A91C C94A,-5.09

row,Variant,polymerase ribozyme fitness (log ratio)
1,G52A C98U,-1.13
2,G51C U129A,-5.21
3,G51A G60A,-1.34
4,G52U G93C G120A G135C,-1.15
5,G51U C56A G69U U106C,-1.79
6,G51A C62U U112A G113U,-4.77
7,G52A C115U,-2
8,G51U A111U,-6.02
9,G51U A111C,-4.77
10,G51C G60A A111G,-4.94
11,G51C G52U C102A C124A,-4.54
12,G52A A74G G122A C124U,0.026
13,G52A A66G,-1.47
14,G52A A74G U78G C80A,-3.14
15,G51U C76A U106A,-2
16,G51U U87C C123A,-2.59
17,G51A G60U G113A U116A,-7.25
18,G51C C53G G61U,-2.56
19,G51A C99U,-7.64
20,C53A A68U,-6.8
21,G51U C73U U112C,-1.32
22,C53A C56A A84G U106C G113A,-2.51
23,G52U G60U,-0.578
